The results in this text go back to the Immune Epitope Database (IEDB).

One test has as its target HLA-A*24:02. Nature of the test: IEDB peptide-MHC binding, purified MHC/competitive/fluorescence; ≥ and ≤ were set here for values at or beyond the usual limits of such assays.
Test [1] deals with HLA-A*02:01. Described as above.
For test [2], the target named is HLA-A*03:01. Put plainly: IEDB peptide-MHC binding, purified MHC/competitive/fluorescence; filed as Kd, often an IC50 or EC50 that approximates it; ≥ and ≤ were set here for values at or beyond the usual limits of such assays.
The target in test [3] is HLA-A*02:01. Nature of the test: IEDB peptide-MHC binding, purified MHC/direct/fluorescence; filed as Kd, often an IC50 or EC50 that approximates it; ≥ and ≤ were set here for values at or beyond the usual limits of such assays.
The target of another test is HLA-A*02:12. The test is described as above. Particulars: source organism: Ravn virus - Ravn, Kenya, 1987.
The next test concerns the target HLA-A*69:01. The test is described as above.
The target of the next test is HLA-B*53:01. Nature of the test: IEDB peptide-MHC binding, purified MHC/competitive/radioactivity; filed as Kd, often an IC50 or EC50 that approximates it; ≥ and ≤ were set here for values at or beyond the usual limits of such assays.
The target in another test is HLA-B*35:01. Described as above.
A further test deals with HLA-B*54:01. Described as above.
Test [4] has as its target HLA-B*07:02. The description is as above.
For the next test, the target named is HLA-B*51:01. The test is described as above.
Test [5] addresses HLA-A*03:01. Nature of the test: IEDB peptide-MHC binding, purified MHC/direct/fluorescence; filed as Kd, often an IC50 or EC50 that approximates it; ≥ and ≤ were set here for values at or beyond the usual limits of such assays.
The target of the next test is HLA-A*31:01. Described as above.
Another test concerns the target HLA-B*27:05. Described as above.
In a further test the target is HLA-A*01:01. The test is described as above.
The next test deals with HLA-B*40:01. The test is described as above.
For the next test, the target named is HLA-A*26:01. The description is as above.
A further test deals with HLA-B*58:01. The test is described as above.
The target in test [6] is HLA-B*07:02. The test is described as above.
Another test concerns the target HLA-B*08:01. The test is described as above.
Another test addresses HLA-A*11:01. The test is described as above.
For another test, the target named is HLA-B*15:01. Described as above.
The target of the next test is HLA-B*44:02. The description is as above.
Where [7] appears, read: source organism: Sudan ebolavirus.
Where [8] appears, read: source organism: Ebola virus - Mayinga, Zaire, 1976.
Setting [9] is: source organism: Vaccinia virus WR.
Setting [10] is: source organism: Giardia lamblia ATCC 50803.
[11] abbreviates: source organism: Zaire ebolavirus.
Where [12] appears, read: source organism: Mammarenavirus lassaense.
The mark [13] stands for this setting: source organism: Coxiella burnetii.

EGIYTEGLM: the IC50 (commonly the concentration that gives 50% inhibition) with HLA-A*24:02 (setting [7]) is 15 µM; in the test with HLA-A*02:01 [1] (setting [7]) it was 33.4 µM.
Turning to ETMEVVQQTR, the Kd (commonly a measure of binding affinity in units of concentration) with HLA-A*03:01 [2] (source organism: Influenza A virus (A/Fort Monmouth/1/1947-mouse adapted(H1N1))) is no less than 20 µM.
In the case of IISDLSIFI, the Kd stood at 0.003 µM with HLA-A*02:01 [3] (setting [8]), 0.069 µM with HLA-A*02:12 and 0.0323 µM with HLA-A*69:01 (setting [8]).
In the case of IPFDDIVRTM, the Kd amounted to 1.02 µM with HLA-B*53:01 (setting [9]); 0.192 µM with HLA-B*35:01 (setting [9]); 4.25 µM with HLA-B*54:01 (setting [9]); 2.94 µM in the test with HLA-B*07:02 [4] (setting [9]); 8.69 µM in the test with HLA-B*51:01 (setting [9]).
As to IPVDLVKSSF, the Kd in the test with HLA-B*53:01 (setting [9]) came out at 0.00861 µM; with HLA-B*35:01 (setting [9]), 0.00543 µM; with HLA-B*54:01 (setting [9]), 0.297 µM; with HLA-B*07:02 [4] (setting [9]), 0.0205 µM; with HLA-B*51:01 (setting [9]) it was 5.38 µM.
In turn, KISGSFSPH yielded a Kd with HLA-A*03:01 [2] (source organism: Cryptosporidium parvum Iowa II) of 0.0369 µM.
As for KLADMSIYC, the Kd in the test with HLA-A*03:01 [5] (setting [10]) is 4.2 µM; with HLA-A*31:01 (setting [10]), no less than 20 µM; with HLA-A*02:01 [3] (setting [10]) it was 0.0427 µM; with HLA-B*27:05 (setting [10]), no less than 20 µM; in the test with HLA-A*69:01 (setting [10]) it was no less than 20 µM; in the test with HLA-A*01:01 (setting [10]), no less than 20 µM. Also, the Kd in the test with HLA-B*40:01 (setting [10]), with HLA-A*26:01 (setting [10]), with HLA-B*58:01 (setting [10]), with HLA-B*07:02 [6] (setting [10]), with HLA-B*08:01 (setting [10]) and with HLA-A*11:01 (setting [10]) was no less than 20 µM in each case. Further, the results for the Kd with HLA-B*15:01 (setting [10]) and in the test with HLA-B*44:02 (setting [10]) were 4 µM and no less than 20 µM, respectively.
In the case of KPKFCLIDGM, the Kd was 11.9 µM with HLA-B*53:01 (setting [9]); no less than 22.4 µM with HLA-B*35:01 (setting [9]); 14.5 µM in the test with HLA-B*54:01 (setting [9]); 0.0802 µM with HLA-B*07:02 [4] (setting [9]); no less than 69.6 µM with HLA-B*51:01 (setting [9]).
In the case of KQLQQYAES, the IC50 was 20.8 µM with HLA-A*24:02 (setting [11]) and no less than 187 µM with HLA-A*02:01 [1] (setting [11]).
Sequence KVYTMDGEY showed an equilibrium dissociation constant (Kd) with HLA-A*03:01 [2] (source organism: West Nile virus) of 0.0376 µM.
In the test with HLA-A*24:02 (source organism: Vaccinia virus), KYNTPCPNC showed an IC50 of 35.5 µM. In other words, the double-digit micromolar range.
As to LPESDLDKV, the Kd in the test with HLA-B*53:01 (setting [9]) was 7.28 µM; in the test with HLA-B*35:01 (setting [9]), no less than 22.6 µM; with HLA-B*54:01 (setting [9]) it was 2.29 µM; in the test with HLA-B*07:02 [4] (setting [9]), 7.81 µM; with HLA-B*51:01 (setting [9]), 6.57 µM.
Turning to MPDCGMSVLA, the Kd with HLA-B*53:01 (setting [12]) was 0.442 µM; in the test with HLA-B*35:01 (setting [12]), 0.0922 µM; in the test with HLA-B*54:01 (setting [12]), 0.105 µM; with HLA-B*07:02 [4] (setting [12]) it was 3.88 µM; in the test with HLA-B*51:01 (setting [12]), 9.18 µM.
MVAWRVTMH: in the test with HLA-A*03:01 [2] (source organism: Toxoplasma gondii), the Kd is 0.0481 µM.
Turning to NPDNTIAVI, the Kd with HLA-B*53:01 (setting [9]) worked out at 0.00142 µM; with HLA-B*35:01 (setting [9]), 0.00265 µM; with HLA-B*54:01 (setting [9]) it was 2.21 µM; in the test with HLA-B*07:02 [4] (setting [9]) it was 0.233 µM; with HLA-B*51:01 (setting [9]), 1.73 µM.
On to NPTSETMYL, for which the Kd was 0.0042 µM in the test with HLA-B*53:01 (setting [9]); 0.0592 µM with HLA-B*35:01 (setting [9]); no less than 37.5 µM with HLA-B*54:01 (setting [9]); 0.116 µM in the test with HLA-B*07:02 [4] (setting [9]); no less than 60.7 µM with HLA-B*51:01 (setting [9]).
Regarding PEIRRWIIF, the Kd with HLA-A*03:01 [5] (setting [13]), with HLA-A*31:01 (setting [13]), in the test with HLA-A*02:01 [3] (setting [13]), with HLA-B*27:05 (setting [13]), in the test with HLA-A*69:01 (setting [13]) and with HLA-A*01:01 (setting [13]) was no less than 20 µM each time. Besides, the Kd was 5.64 µM with HLA-B*40:01 (setting [13]); no less than 20 µM with HLA-A*26:01 (setting [13]); no less than 20 µM with HLA-B*58:01 (setting [13]); no less than 20 µM in the test with HLA-B*07:02 [6] (setting [13]); no less than 20 µM in the test with HLA-B*08:01 (setting [13]); no less than 20 µM in the test with HLA-A*11:01 (setting [13]). In addition, the Kd with HLA-B*15:01 (setting [13]) and with HLA-B*44:02 (setting [13]) was no less than 20 µM throughout.
